In publication PMC8390522, “The phototroph-specific β-hairpin structure of the γ subunit of FoF1-ATP synthase is important for efficient ATP synthesis of cyanobacteria” (The Journal of Biological Chemistry, 2021):

Molecular target: the molecule itself
Test: SDS-PAGE with immunoblot (oligomer resistant to SDS); purified FoF1 on 16% polyacrylamide gels, immunoblot with anti-c-subunit antibodies; the c subunit runs as a ring above the α subunit

B1: c subunit of FoF1 ATP synthase of Synechocystis sp. PCC 6803 (natural protein, Synechocystis sp. PCC 6803 (endogenous), UniProt P27182 1-81, looked up)
chain: MDSTVAAASVIAAALAVGLGAIGPGIGQGNASGQAVSGIARQPEAEGKIRGTLLLTLAFMESLTIYGLVIALVLLFANPFA
notes: ATP synthase c subunit, Synechocystis sp; Forms the c-ring; also called ssl2615; c-ring; source: endogenous, Synechocystis sp
**Q.** Does B1 bind?
**A.** Result: binds
